Substitutions are numbered along the chain they refer to.
T1: recombinant purified human IL-12 p70 (human, UniProt P29459 23-219)
T1 sequence 1: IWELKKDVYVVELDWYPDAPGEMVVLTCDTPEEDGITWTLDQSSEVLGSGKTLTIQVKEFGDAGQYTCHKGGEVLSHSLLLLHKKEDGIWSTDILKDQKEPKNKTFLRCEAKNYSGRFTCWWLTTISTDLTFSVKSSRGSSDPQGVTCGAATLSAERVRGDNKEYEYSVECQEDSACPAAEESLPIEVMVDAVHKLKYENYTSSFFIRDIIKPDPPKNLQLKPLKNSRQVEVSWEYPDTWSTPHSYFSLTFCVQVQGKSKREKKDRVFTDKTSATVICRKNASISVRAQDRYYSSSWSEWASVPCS
T1 sequence 2: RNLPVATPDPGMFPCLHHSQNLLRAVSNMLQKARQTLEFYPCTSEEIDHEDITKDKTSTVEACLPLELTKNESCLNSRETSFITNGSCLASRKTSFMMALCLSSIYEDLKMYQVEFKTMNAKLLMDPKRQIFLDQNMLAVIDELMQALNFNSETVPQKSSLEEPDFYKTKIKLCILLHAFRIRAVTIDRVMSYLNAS

T2: recombinant purified cyno IL-12 p70 (cynomolgus monkey)
T2 chain 1: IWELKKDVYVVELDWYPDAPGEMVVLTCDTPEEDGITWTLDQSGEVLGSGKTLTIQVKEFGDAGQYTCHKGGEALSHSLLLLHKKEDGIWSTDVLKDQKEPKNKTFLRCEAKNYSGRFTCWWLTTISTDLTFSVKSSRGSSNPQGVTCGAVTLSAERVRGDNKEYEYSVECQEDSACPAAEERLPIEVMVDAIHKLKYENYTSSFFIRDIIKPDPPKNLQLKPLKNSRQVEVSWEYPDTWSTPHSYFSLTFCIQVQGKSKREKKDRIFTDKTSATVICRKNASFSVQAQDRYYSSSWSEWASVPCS
T2 chain 2: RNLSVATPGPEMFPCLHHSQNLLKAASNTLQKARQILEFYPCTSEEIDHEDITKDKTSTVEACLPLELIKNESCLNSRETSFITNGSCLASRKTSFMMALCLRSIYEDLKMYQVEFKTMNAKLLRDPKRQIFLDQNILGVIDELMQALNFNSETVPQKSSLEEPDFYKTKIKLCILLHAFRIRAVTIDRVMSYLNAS

B1: additional humanized anti-IL-12 antibody 1A6.10 (antibody, human IgG1, V domains shown)
VH: EVTLRESGPGLVKPTQTLTLTCTLYGFSLSTSGMGVSWIRQPPGKGLEWLAHIWWDGDNYYNPSLKSQLTISKDTSKNQVVLKLTSVDPVDTATYYCARRTRVNYAMDYWGQGTLVTVSS
VL: DIQMTQSPSSLSASVGDRVTITCKASQSVSNDVAWYQQKPGKAPKLLIYYASNRYTGVPDRFSGSGYGTDFTFTISSLQPEDIATYYCQQDYNSPWTFGGGTKVEIKR
notes: Only variable domains tied to it
B2: additional humanized anti-IL-12 antibody 1A6.12 (antibody, human IgG1, V domains shown)
VH: B1 VH
VL: B1 VL with Y36F
notes: as for B1
B3: chimeric anti-human IL-12p40 antibody 3G7-Chim (antibody, human IgG1, kappa, L234A L235A, V domains shown)
VH: QVQLQQSGAELMKPGASVKISCKATGYTFNDYWIEWVKQRPGHGLEWIGGFSHGSGSTNYNEKFKGKATFTADSSSNTAYMQLSSLTSEDSAVYYCARRRFRGMDYWGQGTSVTVSS
VL: SIVMTQTPKFLLVSAGDRVTITCKASQSVSNDVAWYQQKPGQSPKLLIYYASNRYTGVPDRFTGSGYGTDFTFTITTVQAEDLAVYFCQQDYSSPWSFGGGTKLEIKR
B4: chimeric antibody 3G7/1D4-Chim (chimeric 3G7 heavy chain with 1D4 chimeric light chain) (antibody, human IgG1, kappa, L234A L235A, V domains shown)
VH: B3 VH
VL: B3 VL with I2V, T74I, T76S, Q79R, S93N, S97T
B5: chimeric anti-human IL-12p40 antibody 8E1-Chim (antibody, human IgG1, kappa, L234A L235A, V domains shown)
VH: EVKLVESGGGLVQPGGSRKLSCAASGFTFSDYGMVWVRQAPGKGLEWVASISSGSSNIYYADTVKGRFTISRDDPNNTLFLQMRSLRSEDTAMYYCARNPYWGQGTTLTVSS
VL: DIVMTQSQKFMSTSVGDRVSVTCKASQNVGTNVAWYQQKPGQSPKGLIYSASHRYSGVPDRFAGSGSGTDFTLTISNVQSEDLAEYFCQQYNSYPLTFGGGTKLELKR
B6: anti-IL-12p40 humanized antibody 1D4.6 (antibody, human IgG1, kappa, L234A L235A, V domains shown)
VH: EVTLRESGPALVKPTQTLTLTCTFSGFSLSKSVMGVSWIRQPPGKALEWLAHIYWDDDKYYNPSLKSRLTISKDTSKNQVVLTMTNMDPVDTATYYCTRRGIRSAMDYWGQGTTVTVSS
VL: DVVMTQSPDSLAVSLGERATINCKASQSVSNDVAWYQQKPGQPPKLLIYYASNRYTGVPDRFSGSGYGTDFTLTISSLQAEDVAVYYCQQDYNSPWTFGGGTKVEIKR
notes: COS cells
B7: anti-IL-12p40 humanized antibody 1A6.9 (antibody, human IgG1, kappa, L234A L235A, V domains shown)
VH: B1 VH with G10A, L24F, Y25S, G46A, Q68R, K83T, L84M, S86N, V87M, L115T
VL: B6 VL with D1S, Y36F
notes: Back-mutated CDR-grafted antibody; COS cells
B8: anti-IL-12p40 humanized antibody 1D4.8 (antibody, human IgG1, kappa, L234A L235A, V domains shown)
VH: B6 VH with S30R
VL: B6 VL with V2I, Y67S
notes: as for B7
B9: anti-IL-12p40 humanized antibody 3G7.3 (antibody, human IgG1, kappa, L234A L235A, V domains shown)
VH: EVQLVQSGAEVKKPGASVKVSCKATGYTFNDYWIEWVRQAPGQGLEWMGGFSHGSGSTNYNEKFKGRVTMTADSSTNTAYMELRSLRSDDTAVYYCARRRFRGMDYWGQGTTVTVSS
VL: EIVMTQSPATLSVSPGERATLSCKASQSVSNDVAWYQQKPGQAPRLLIYYASNRYTGVPDRFSGSGSGTEFTLTISSLQSEDFAVYYCQQDYSSPWSFGGGTKVEIKR
notes: as for B7
B10: anti-IL-12p40 humanized antibody 8E1.3 (antibody, human IgG1, kappa, L234A L235A, V domains shown)
VH: B5 VH with R18L, K19R, P75S, N76K, F80Y, R84N, R87K, S88T, M93V, L108V
VL: DIVMTQSPSSLSASVGDRVTITCKASQNVGTNVAWYQQKPEKAPKSLIYSASHRYSGVPSRFSGSGSGTDFTLTISSLQPEDFATYYCQQYNSYPLTFGGGTKVEIKR
notes: as for B7

target: T1, recombinant purified human IL-12 p70; test: cell-based or functional assay

Av. IC50 (nM) huIL-12, PHA blast assay [nM]	Binder
0.15	B1
0.088	B2

target: T1, recombinant purified human IL-12 p70; test: cell-based or functional assay; remark: another data set of the same source

Average IC50 (nM) Human IL-12, PHA blast IFN-γ assay [nM]	Binder
0.12	B3
0.11	B4
0.17	B5

Target: T2, recombinant purified cyno IL-12 p70
Test: cell-based or functional assay

Average IC50 (nM) Cyno IL-12, PHA blast IFN-γ assay [nM]	Binder
0.32	B3
0.29	B4
0.15	B5

target: T1, recombinant purified human IL-12 p70; test: SPR (BIAcore) as in Example 1.1.B, human IL-12p70
Description: Approximately 5000 RU of goat anti-mouse IgG, (Fcγ), fragment specific polyclonal antibody (Pierce Biotechnology Inc, Rockford, Ill.) diluted in 10 mM sodium acetate (pH 4.5) was directly immobilized across a CM5 research grade biosensor chip using a standard amine coupling kit according to manufacturer's instructions and procedures at 25 μg/ml. Unreacted moieties on the biosensor surface were blocked with ethanolamine. Modified carboxymethyl dextran surface in flowcell 2 and 4 was used as a reaction surface. Unmodified carboxymethyl dextran without goat anti-mouse IgG in flow cell 1 and 3 was used as the reference surface. For kinetic analysis, rate equations derived from the 1:1 Langmuir binding model were fitted simultaneously to association and dissociation phases of all eight injections (using global fit analysis) with the use of Biaevaluation 4.0.1 software. Purified antibodies were diluted in HEPES-buffered saline for capture across goat anti-mouse IgG specific reaction surfaces. Mouse antibodies to be captured as a ligand (25 μg/ml) were injected over reaction matrices at a flow rate of 5 μl/min. The association and dissociation rate constants, kₒₙ (unit M⁻¹ s⁻¹) and koff (unit s⁻¹) were determined under a continuous flow rate of 25 μl/min. Rate constants were derived by making kinetic binding measurements at ten different antigen concentrations ranging from 10-200 nM. The equilibrium dissociation constant (unit M) of the reaction between mouse antibodies and recombinant purified human IL-12 p70 or recombinant purified human IL-12 p40 was then calculated from the kinetic rate constants by the following formula: KD=koff/kₒₙ. Binding is recorded as a function of time and kinetic rate constants are calculated. In this assay, on-rates as fast as 10⁶M⁻¹ s⁻¹ and off-rates as slow as 10⁻⁶ can be measured. […]

Kd [nM]	koff [s⁻¹]	kon [M⁻¹ s⁻¹]	Binder
< 0.01	< 1e-05	480000	B6
< 0.01	< 1e-05	350000	B7
< 0.01	< 1e-05	120000	B8
0.2	0.00015	780000	B9
0.76	0.001	1.3e+06	B10

target: T1, recombinant purified human IL-12 p70; test: cell-based or functional assay; remark: another data set of the same source

Av. IC50 (nM) huIL-12, PHA blast assay [nM]	Binder
0.15	B6
0.15	B7
0.095	B8
0.42	B9
10	B10

target: T1, recombinant purified human IL-12 p70; test: SPR (Biacore) according to Example 1.1.B
Description: The BIACORE assay (Biacore, Inc, Piscataway, N.J.) determines the affinity of antibodies with kinetic measurements of on-, off-rate constants. Binding of antibodies to recombinant purified human IL-12 p70 or recombinant purified human IL-12 p40 were determined by surface plasmon resonance-based measurements with a Biacore® 3000 instrument (Biacore® AB, Uppsala, Sweden) using running HBS-EP (10 mM HEPES [pH 7.4], 150 mM NaCl, 3 mM EDTA, and 0.005% surfactant P20) at 25° C. All chemicals were obtained from Biacore® AB (Uppsala, Sweden) or otherwise from a different source as described in the text. Approximately 5000 RU of goat anti-mouse IgG, (Fcγ), fragment specific polyclonal antibody (Pierce Biotechnology Inc, Rockford, Ill.) diluted in 10 mM sodium acetate (pH 4.5) was directly immobilized across a CM5 research grade biosensor chip using a standard amine coupling kit according to manufacturer's instructions and procedures at 25 μg/ml. Unreacted moieties on the biosensor surface were blocked with ethanolamine. Modified carboxymethyl dextran surface in flowcell 2 and 4 was used as a reaction surface. Unmodified carboxymethyl dextran without goat anti-mouse IgG in flow cell 1 and 3 was used as the reference surface. For kinetic analysis, rate equations derived from the 1:1 Langmuir binding model were fitted simultaneously to association and dissociation phases of all eight injections (using global fit analysis) with the use of Biaevaluation 4.0.1 software. Purified antibodies were diluted in HEPES-buffered saline for capture across goat anti-mouse IgG specific reaction surfaces. Mouse antibodies to be captured as a ligand (25 μg/ml) were injected over reaction matrices at a flow rate of 5 μl/min. The association and dissociation rate constants, kₒₙ (unit M⁻¹ s⁻¹) and koff (unit s⁻¹) were determined under a continuous flow rate of 25 μl/min. Rate constants were derived by making kinetic binding measurements at ten different antigen concentrations ranging from 10-200 nM. The equilibrium dissociation constant (unit M) of the reaction between mouse antibodies and recombinant purified human IL-12 p70 or recombinant purified human IL-12 p40 was then calculated from the kinetic rate constants by the following formula: KD=koff/kₒₙ. Binding is recorded as a function of time and kinetic rate constants are calculated.

Kd [nM]	koff [s⁻¹]	kon [M⁻¹ s⁻¹]	Binder
0.024	7.6e-06	320000	B1
0.4	0.0003	740000	B2

Reference: US20140178332A1 (published 2014)
